Data taken from patent publication US8034904B2, “Anti-IGF-I receptor antibody” (Immunogen Inc., priority 2002, dated 2011).

What was measured:
A 549 cells = experiment: Growth and survival of A 549 cells (MTT assay); type: cell-based, human; details: 5-10 μg/mL EM164, 10 ng/mL IGF-I
Method: (§1) Several human tumor cell lines were tested in serum-free conditions for their growth and survival response to IGF-I. These cell lines were treated with EM164 antibody in the presence of IGF-I, IGF-II, or serum, and their growth and survival responses were measured using an MTT assay after 2-4 days. Approximately 1500 cells were plated in a 96-well plate in regular medium with serum, which was replaced with serum-free medium the following day (either serum-free RPMI medium supplemented with transferrin and BSA, or phenol-red free medium as specified by Dufourny, B. et al., 1997, J. Biol. Chem., 272, 31163-31171). After one day of growth in serum-free medium, the cells were incubated with about 75 μL of 10 μg/mL antibody for 30 min.-3 h, followed by the addition of 25 μL of IGF-I (or IGF-II or serum) solution to obtain a final concentration of 10 ng/mL IGF-I, or 20 ng/mL IGF-II, or 0.04-10% serum. In some experiments, the cells were stimulated first with IGF-I for 15 min before the addition of EM164 antibody, or both IGF-I and EM164 antibody were added together. The cells were then allowed to grow for another 2-3 days. […] The medium was then removed and replaced by 100 μL DMSO, mixed, and the absorbance of the plate was measured at 545 nm.

HT-3 (cervical) cells = experiment: Growth and survival of HT-3 cells (MTT assay); type: cell-based, human; details: 5-10 μg/mL EM164, 10 ng/mL IGF-I
Method: as §1

[1] = system: SK-N-SH (neuroblastoma) cells; experiment: Growth and survival of SK-N-SH cells (MTT assay); type: cell-based, human
Method: (§2) Several human tumor cell lines were tested in serum-free conditions for their growth and survival response to IGF-I. These cell lines were treated with EM164 antibody in the presence of IGF-I, IGF-II, or serum, and their growth and survival responses were measured using an MTT assay after 2-4 days. Approximately 1500 cells were plated in a 96-well plate in regular medium with serum, which was replaced with serum-free medium the following day (either serum-free RPMI medium supplemented with transferrin and BSA, or phenol-red free medium as specified by Dufourny, B. et al., 1997, J. Biol. Chem., 272, 31163-31171). After one day of growth in serum-free medium, the cells were incubated with about 75 μL of 10 μg/mL antibody for 30 min.-3 h, followed by the addition of 25 μL of IGF-I (or IGF-II or serum) solution to obtain a final concentration of 10 ng/mL IGF-I, or 20 ng/mL IGF-II, or 0.04-10% serum. In some experiments, the cells were stimulated first with IGF-I for 15 min before the addition of EM164 antibody, or both IGF-I and EM164 antibody were added together. The cells were then allowed to grow for another 2-3 days. A solution of MTT (3-(4,5)-dimethylthiazol-2-yl)-2,5-diphenyltetrazolium bromide; 25 μL of a 5 mg/mL solution in PBS) was then added and the cells were returned to the incubator for 2-3 h. The medium was then removed and replaced by 100 μL DMSO, mixed, and the absorbance of the plate was measured at 545 nm.

[2] = molecular target: T1, SDS-denatured human IGF-I receptor (Homo sapiens, UniProt P08069); experiment: Western blot detection of SDS-denatured IGF-I receptor in MCF-7 lysates; type: binding; details: lysates from MCF-7 cells
T1 construct: human breast cancer MCF-7 cells, which expressed IGF-I receptor; endogenous in cells; host or cells: MCF-7 human breast cancer cells
Source text: A Western blot of the EM164 antibody immunoprecipitate was detected using a rabbit polyclonal anti-IGF-I receptor beta chain (C-terminus) antibody (Santa Cruz Biotechnology) and a goat-anti-rabbit-IgG-antibody-horseradish peroxidase conjugate, followed by washes and enhanced chemiluminescence (ECL) detection.

[3] = molecular target: T2, IGF-I receptor on NCI-H838 cells (Homo sapiens, UniProt P08069); experiment: IGF-I displacement in NCI-H838 lung cancer cells; type: cell-based; details: 4° C., 2 h
T2 construct: endogenous in cells; host or cells: NCI-H838 lung cancer cells
Method: (or at 4° C.) for 1 to 2 h. […] (or at 4° C.) for 30 min to 4 h. Cells were then washed with PBS and lysed in lysis buffer containing 1% NP-40 at 4° C.

[4] = system: Human pancreatic cancer BxPC-3 xenografts; experiment: BxPC-3 pancreatic cancer xenograft in SCID/ICR mice; type: in vivo, mouse
Method: Human pancreatic cancer xenografts were established in 5 week-old, female SCID/ICR mice (Taconic) by subcutaneous injections of 10^7 BxPC-3 cells in PBS (day 0). The mice bearing established tumors of 80 mm^3 were then treated with EM164 alone (13 injections of 0.8 mg/mouse, i.v., lateral tail vein, on days 12, 16, 19, 23, 26, 29, 36, 43, 50, 54, 58, 61 and 64), with gemcitabine alone (two injections of 150 mg/kg/mouse, i.p., on days 12 and 19), with a combination of gemcitabine and. EM164 following the above schedules, PBS alone, and a control antibody alone (following the same schedule as EM164) using five mice in each of the five treatment groups.

NCI-H596 cells = experiment: Growth and survival of NCI-H596 cells (MTT assay); type: cell-based, human
Method: as §2

A 431 (epidermoid) cells = experiment: Growth and survival of A 431 cells (MTT assay); type: cell-based, human
Method: as §2

[5] = molecular target: T3, IGF-I receptor on MCF-7 cells (Homo sapiens, UniProt P08069); experiment: FACS binding to human breast cancer MCF-7 cells
T3 construct: human breast cancer MCF-7 cells, which expressed IGF-I receptor; endogenous in cells; host or cells: MCF-7 human breast cancer cells
Method: The cells were pelleted by centrifugation and washed with cold FACS buffer by gentle flicking, followed by incubation with goat-anti-mouse-IgG-antibody-FITC conjugate (100 μL; 10 μg/mL in FACS buffer) on ice for 1 h. The cells were pelleted, washed, and resuspended in 120 μL of 1% formaldehyde solution in PBS. The plate was analyzed using a FACSCalibur reader (BD Biosciences).

[6] = system: Calu-6 non-small cell lung cancer cells; experiment: Growth and survival of Calu-6 cells (MTT assay); type: cell-based, human
Method: as §2

[7] = system: NCI-H838 lung cancer cells; experiment: Apoptosis: caspase-cleaved cytokeratin CK18 in NCI-H838 cells; type: cell-based, human; details: IGF-I or serum, presence vs absence of EM164, 1 day
Method: For measurement of apoptosis, cleavage of the cytokeratin CK18 protein by caspase was measured in NCI-H838 lung cancer cells incubated with IGF-I or serum in the presence or absence of EM164 for 1 day (FIG. 26).

SK-LU-1 cells = experiment: Growth and survival of SK-LU-1 cells (MTT assay); type: cell-based, human
Method: as §2

[8] = 5-10 μg/mL EM164, 10 ng/mL IGF-I
[9] = 5-10 μg/mL EM164, MTT or colony formation assay

B1: EM164: murine anti-IGF-I receptor monoclonal antibody, IgG1 with kappa light chain, hybridoma ATCC PTA-4457; heavy SEQ ID NO:7, light SEQ ID NO:8 (antibody)
heavy: QVQLQQSGAELVKPGASVKLSCKASGYTFTSYWMHWVKQRPGQGLEWIGEINPSNGRTNYNEKFKRKATLTVDKSSSTAYMQLSSLTSEDSAVYYFARGRPDYYGSSKWYFDVWGAGTTVTVSS
light: DVLMTQTPLSLPVSLGDQASISCRSSQSIVHSNVNTYLEWYLQKPGQSPKLLIYKVSNRFSGVPDRFSGSGSGTDFTLRISRVEAEDLGIYYCFQGSHVPPTFGGGTKLEIKR
modifications: antibody heavy chain; antibody light chain
Inhibition by EM164 antibody of IGF-I-stimulated growth in serum-free medium (A 549 cells): 80%
Inhibition by EM164 antibody of IGF-I-stimulated growth in serum-free medium (HT-3 (cervical) cells): 70-90%
% Inhibition by EM164 antibody of Growth/survival of cells in 1.25-10% serum ([1]; 5-10 μg/mL EM164): 30-50%
Inhibition by EM164 antibody of IGF-I-stimulated growth in serum-free medium [1, 8]: 85%
detection of SDS-denatured human IGF-I receptor in Western blots [2]: did not detect
decrease in the bound biotin-IGF-I [3]: 80%
day on which measurable tumor regrowth was seen in more than one animal ([4]; BxPC-3 xenografts): 43 days
total regression of tumor xenografts (animals) ([4]; EM164 0.8 mg/mouse i.v. x13, gemcitabine 150 mg/kg i.p. days 12 and 19, five mice per group): 4 of 5
mean tumor volumes on day 74 in comparison with the control treatments ([4]; P=0.029 (EM164) and 0.002 (combination), two-tailed T-test): significantly smaller
growth of established BxPC-3 xenografts ([4]; another study, intraperitoneal injections): inhibited the growth
inhibition of the growth of established BxPC-3 xenografts, intraperitoneal vs intravenous administration ([4]; mouse, in vivo): equivalent inhibition
inhibition of the growth of established BxPC-3 xenografts, murine vs humanized ([4]; mouse, in vivo): equivalent inhibition
Inhibition by EM164 antibody of IGF-I-stimulated growth in serum-free medium (NCI-H596 cells; [8]): 100%
% Inhibition by EM164 antibody of Growth/survival of cells in 1.25-10% serum (NCI-H596 cells; [9]): Weakly
Inhibition by EM164 antibody of IGF-I-stimulated growth in serum-free medium (A 431 (epidermoid) cells; [8]): 85%
% Inhibition by EM164 antibody of Growth/survival of cells in 1.25-10% serum (A 431 (epidermoid) cells; [9]): Yes
fluorescence shift (FACS) [5]: strong fluorescence shift
Inhibition by EM164 antibody of IGF-I-stimulated growth in serum-free medium [6, 8]: 85%
% Inhibition by EM164 antibody of Growth/survival of cells in 1.25-10% serum [6, 9]: Yes
caspase-cleaved CK18 levels [7]: greater cleaved CK18 levels
Inhibition by EM164 antibody of IGF-I-stimulated growth in serum-free medium (SK-LU-1 cells; [8]): 100%
% Inhibition by EM164 antibody of Growth/survival of cells in 1.25-10% serum (SK-LU-1 cells; [9]): No
